What was measured:
GST-CycA (Cyclin A) = target: T1, GST-CycA (Cyclin A) (UniProt P14785 1-491); assay: pull-down; purified GST-tagged protein on beads incubated with 5 µl in vitro translation reaction (reticulocyte lysate) in 500 µl IP buffer, 2 h at 4°C; 3 washes; Western blot with anti-Myc 9E10; settings: one partner purified
T1 construct: Cyclin A; construct not described in the methods
T1 sequence (looked up): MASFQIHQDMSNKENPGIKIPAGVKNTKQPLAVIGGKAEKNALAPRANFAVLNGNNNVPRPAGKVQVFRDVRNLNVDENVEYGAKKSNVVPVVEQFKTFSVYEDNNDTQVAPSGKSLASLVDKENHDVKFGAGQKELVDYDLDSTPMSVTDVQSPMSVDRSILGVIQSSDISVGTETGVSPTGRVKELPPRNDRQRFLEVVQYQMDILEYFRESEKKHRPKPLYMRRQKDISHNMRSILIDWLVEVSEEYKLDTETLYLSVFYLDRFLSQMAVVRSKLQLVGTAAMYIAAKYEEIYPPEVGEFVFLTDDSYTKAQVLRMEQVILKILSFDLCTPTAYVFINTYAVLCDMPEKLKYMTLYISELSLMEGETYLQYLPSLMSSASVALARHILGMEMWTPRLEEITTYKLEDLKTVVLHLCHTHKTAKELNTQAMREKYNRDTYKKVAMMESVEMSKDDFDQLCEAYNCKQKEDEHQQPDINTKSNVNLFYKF

[1] = target: T2, GST-tagged Mtrm (Matrimony) (Drosophila melanogaster, UniProt Q23973 1-217); assay: as above; settings: one partner purified
T2 construct: mtrm cDNA LD47919 cloned into pGEX6p-1; also called GST-Mtrm; source: expressed and purified from bacteria
T2 sequence (looked up): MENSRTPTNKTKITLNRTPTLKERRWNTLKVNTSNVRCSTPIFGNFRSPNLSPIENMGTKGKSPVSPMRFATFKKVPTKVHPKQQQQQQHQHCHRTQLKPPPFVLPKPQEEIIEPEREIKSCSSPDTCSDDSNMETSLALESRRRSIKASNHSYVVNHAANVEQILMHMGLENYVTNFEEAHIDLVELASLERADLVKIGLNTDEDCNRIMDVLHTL

B1: 6×Myc-Fzy/Cdc20, in vitro translated (natural protein, Drosophila melanogaster, UniProt Q24044 1-526, looked up)
chain: MSQFNFVSDLQNALIMDGETRGPAPRWKKKLEASLNGSVNTTRSVLSVSYNTSFSGVQAPTKTPGKSSEGKTKKSNTTPSKTPGGGDRFIPNRAATNFELAHFLVNKDSGDKSDEENDKATSSNSNESNVQASAHKGDRQKLISEVAQVGDSKGGRILCYQNKAPAAPETHNNPLKVVYSIKTPISTKSGSRYIPTTSERILDAPDFINDYYLNLMDWSADNIVAVALGSCVYLWNAQTGNIEQLTEFEEGDYAGSLSWIQEGQILAIGNSTGAVELWDCSKVKRLRVMDGHSARVGSLAWNSFLVSSGSRDGTIVHHDVRAREHKLSTLSGHTQEVCGLKWSTDFKYLASGGNDNLVNVWSAASGGVGTATDPLHKFNDHQAAVRALAWCPWQPSTLASGGGTADRCIKFWNVNNGTLMKSVDSKSQVCSLLFSRHYKELISAHGFANNQLTIWKYPTMVKQADLTGHTSRVLQMAMSPDGSTVISAGADETLRLWNCFAPDPLASKKAVSTSKGKQSVFRQSIR
notes: 6×myc-fzy/cdc20 cDNA cloned into pOT2; also called Myc-tagged Fzy/Cdc20; Fizzy; source: in vitro translated (TnT T7 Coupled Reticulocyte Lysate System, rabbit reticulocyte lysate)
B1 was tested, and the “fold binding to GST-CycA against binding to GST-Mtrm” value (GST-CycA (Cyclin A)) was 155 fold.

B2: 6×Myc-Cortex (full length), in vitro translated (natural protein, Drosophila melanogaster, UniProt Q960N3 1-483, looked up)
chain: MFVEMSVCDSPNKNSKLDKKSLTPFKKVRRKNWKQEAAYKSDTSKGQEVSYVGERFIPNRFERENIEFNLKYIGKRKERDILETGVTLTASYWRQSGFISNINRTFGIGERRLFQFSSQQGTRSRVVDNDSADSDWPCNPRARPYAIQNATHEMPGICSPVDYNMMDWSSGGMVAMSSGQDVMLWRNLDESTMVFSVESPTSLKYSPDGKHLAIGCMDRNYPVLDLWEVRSPTEFLVSYRKLFFKSMGYISCIEWSHDGKEVICGTQCGVIIVLAMPTLNTLMQLREHRHTVKKMKFAPTHKYFASSDTDGKIFIFDAVLKVRLLKLDGRSIVFDWHPWTGEDLAVAERSPASIFIFNIPRRQFVASYRRRDDRIVIKTLTYSKITGELLVNVIRRDDADLAVCEILVLASLNRVVDLMSHQDRGTLFLMWNPDGTKIATGGLDDTFSLWNFFPTYKREAILRKQEQKAKDKCSSLSLYKGIR
notes: 6×myc-cort cDNA cloned into pOT2; also called Myc-tagged Cort; source: in vitro translated (TnT T7 Coupled Reticulocyte Lysate System, rabbit reticulocyte lysate)
With B2 the “fold binding to GST-Mtrm against 6×Myc-CortΔWD40” value [1] was 5.8 fold.

Reference: article PMC3760765, “A Meiosis-Specific Form of the APC/C Promotes the Oocyte-to-Embryo Transition by Decreasing Levels of the Polo Kinase Inhibitor Matrimony” (PLoS Biology, 2013)
